From patent US20050042227A1 come the findings set out here.

This test concerns the target LRP. Description: cell-based or functional assay.

B1: RAP-IDU fusion (human RAP fused N-terminally to human alpha-L-iduronidase) (protein)
chain: SYSREKNQPKPSPKRESGEEFRMEKLNQLWEKAQRLHLPPVRLAELHADLKIQERDELAWKKLKLDGLDEDGEKEARLIRNLNVILAKYGLDGKKDARQVTSNSLSGTQEDGLDDPRLEKLWHKAKTSGKFSGEELDKLWREFLHHKEKVHEYNVLLETLSRTEEIHENVISPSDLSDIKGSVLHSRHTELKEKLRSINQGLDRLRRVSHQGYSTEAEFEEPRVIDLWDLAQSANLTDKELEAFREELKHFEAKIEKHNHYQKQLEIAHEKLRHAESVGDGERVSRSREKHALLEGRTKELGYTVKKHLQDLSGRISRARAEAETGEAPHLVHVDAARALWPLRRFWRSTGFCPPLPHSQADQYVLSWDQQLNLAYVGAVPHRGIKQVRTHWLLELVTTRGSTGRGLSYNFTHLDGYLDLLRENQLLPGFELMGSASGHFTDFEDKQQVFEWKDLVSSLARRYIGRYGLAHVSKWNFETWNEPDHHDFDNVSMTMQGFLNYYDACSEGLRAASPALRLGGPGDSFHTPPRSPLSWGLLRHCHDGTNFFTGEAGVRLDYISLHRKGARSSISILEQEKVVAQQIRQLFPKFADTPIYNDEADPLVGWSLPQPWRADVTYAAMVVKVIAQHQNLLLANTTSAFPYALLSNDNAFLSYHPHPFAQRTLTARFQVNNTRPPHVQLLRKPVLTAMGLLALLDEEQLWAEVSQAGTVLDSNHTVGVLASAHRPQGPADAWRAAVLIYASDDTRAHPNRSVAVTLRLRGVPPGPGLVYVTRYLDNGLCSPDGEWRRLGRPVFPTAEQFRRMRAAEDPVAAAPRPLPAGGRLTLRPALRLPSLLLVHVCARPEKPPGQVTRLRALPLTQGQLVLVWSDEHVGSKCLWTYEIQFSQDGKAYTPVSRKPSTFNLFVFSPDTGAVSGSYRVRALDYWARPGPFSDPVPYLEVPVPRGPPSPGNP
Turning to B1, the Kuptake ratio (fusion/enzyme), RAP-IDU against rhIDU, fibroblast (ratio (fusion/enzyme)) came out at 25; the Uptake ratio (fusion/enzyme), RAP-IDU against rhIDU, fibroblast, 5 nM (ratio (fusion/enzyme)) is 7; the Uptake ratio (fusion/enzyme), RAP-IDU against rhIDU, fibroblast, 50 nM (ratio (fusion/enzyme)) was 27; the Uptake ratio (fusion/enzyme), RAP-IDU against rhIDU, fibroblast, saturation (ratio (fusion/enzyme)) was determined as 43.
